{"source": "patent US20160136234A1", "assay_in_all_cases": "cell-based or functional assay", "key": {"PKG1α (h) (human)": {"biological_target": "PKG1α (h) (human) (UniProt Q13976)"}, "Tie2(Y897S) (h) (human)": {"biological_target": "Tie2(Y897S) (h) (human) (UniProt Q02763)", "sequence (Q02763 771-1124 Y897S limits assumed)": "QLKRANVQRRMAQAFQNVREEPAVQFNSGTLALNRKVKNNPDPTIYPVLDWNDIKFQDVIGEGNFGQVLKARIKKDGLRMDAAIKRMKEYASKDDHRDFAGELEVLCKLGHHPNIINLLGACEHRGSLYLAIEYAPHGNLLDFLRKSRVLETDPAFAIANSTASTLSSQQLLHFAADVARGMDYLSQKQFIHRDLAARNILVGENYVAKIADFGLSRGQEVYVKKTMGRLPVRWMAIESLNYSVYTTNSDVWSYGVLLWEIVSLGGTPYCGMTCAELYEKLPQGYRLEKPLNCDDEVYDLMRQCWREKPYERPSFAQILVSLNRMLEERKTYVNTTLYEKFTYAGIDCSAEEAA"}, "DDR2 (h) (human)": {"biological_target": "T1, DDR2 (h) (human) (UniProt Q16832)", "T1 sequence (looked up)": "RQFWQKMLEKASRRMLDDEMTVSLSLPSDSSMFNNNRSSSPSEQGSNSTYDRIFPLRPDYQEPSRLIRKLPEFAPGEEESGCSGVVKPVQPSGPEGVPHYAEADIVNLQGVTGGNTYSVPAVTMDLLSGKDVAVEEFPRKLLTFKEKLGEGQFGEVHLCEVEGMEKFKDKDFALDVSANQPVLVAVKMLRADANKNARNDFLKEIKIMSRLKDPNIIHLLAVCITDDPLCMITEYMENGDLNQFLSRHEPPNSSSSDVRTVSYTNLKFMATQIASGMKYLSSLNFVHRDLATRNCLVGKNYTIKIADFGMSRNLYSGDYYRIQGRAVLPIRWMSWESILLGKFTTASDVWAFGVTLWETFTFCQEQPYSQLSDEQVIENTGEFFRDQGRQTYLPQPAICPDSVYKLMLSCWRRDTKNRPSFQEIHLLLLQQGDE"}, "Syk (h) (human)": {"biological_target": "Syk (h) (human) (UniProt P43405)"}, "TAO1 (h) (human)": {"biological_target": "T2, TAO1 (h) (human) (UniProt Q7L7X3)", "T2 sequence (looked up)": "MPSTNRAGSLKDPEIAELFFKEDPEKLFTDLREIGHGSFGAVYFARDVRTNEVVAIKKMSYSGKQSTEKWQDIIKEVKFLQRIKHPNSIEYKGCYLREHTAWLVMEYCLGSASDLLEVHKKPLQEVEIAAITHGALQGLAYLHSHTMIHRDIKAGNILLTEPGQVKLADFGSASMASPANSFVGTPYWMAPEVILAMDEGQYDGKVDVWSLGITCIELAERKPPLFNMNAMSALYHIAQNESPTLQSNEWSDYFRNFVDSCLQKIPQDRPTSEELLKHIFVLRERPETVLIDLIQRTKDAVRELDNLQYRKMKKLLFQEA"}, "PASK (h) (human)": {"biological_target": "PASK (h) (human) (UniProt Q96RG2)"}, "Ret (V804L) (h) (human)": {"biological_target": "T3, Ret (V804L) (h) (human) (UniProt P07949)", "T3 sequence (looked up)": "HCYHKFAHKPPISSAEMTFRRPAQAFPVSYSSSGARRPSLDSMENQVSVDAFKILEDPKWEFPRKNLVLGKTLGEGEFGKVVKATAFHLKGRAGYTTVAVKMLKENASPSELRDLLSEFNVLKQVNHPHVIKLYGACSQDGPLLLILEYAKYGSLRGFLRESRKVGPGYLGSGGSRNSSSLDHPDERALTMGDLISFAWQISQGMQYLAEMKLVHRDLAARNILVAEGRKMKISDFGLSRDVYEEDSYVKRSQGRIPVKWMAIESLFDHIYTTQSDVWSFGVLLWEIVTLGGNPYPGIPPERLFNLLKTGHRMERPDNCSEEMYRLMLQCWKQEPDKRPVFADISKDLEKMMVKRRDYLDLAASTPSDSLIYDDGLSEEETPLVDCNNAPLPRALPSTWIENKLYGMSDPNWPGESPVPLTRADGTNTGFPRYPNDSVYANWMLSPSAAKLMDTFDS"}, "HIPK3 (h) (human)": {"biological_target": "HIPK3 (h) (human) (UniProt Q9H422)"}, "Met(Y1248C) (h) (human)": {"biological_target": "Met(Y1248C) (h) (human) (UniProt P08581)"}, "Met(M1268T) (h) (human)": {"biological_target": "Met(M1268T) (h) (human) (UniProt P08581)"}, "PAK2 (h) (human)": {"biological_target": "PAK2 (h) (human) (UniProt Q13177)", "sequence (Q13177 whole entry)": "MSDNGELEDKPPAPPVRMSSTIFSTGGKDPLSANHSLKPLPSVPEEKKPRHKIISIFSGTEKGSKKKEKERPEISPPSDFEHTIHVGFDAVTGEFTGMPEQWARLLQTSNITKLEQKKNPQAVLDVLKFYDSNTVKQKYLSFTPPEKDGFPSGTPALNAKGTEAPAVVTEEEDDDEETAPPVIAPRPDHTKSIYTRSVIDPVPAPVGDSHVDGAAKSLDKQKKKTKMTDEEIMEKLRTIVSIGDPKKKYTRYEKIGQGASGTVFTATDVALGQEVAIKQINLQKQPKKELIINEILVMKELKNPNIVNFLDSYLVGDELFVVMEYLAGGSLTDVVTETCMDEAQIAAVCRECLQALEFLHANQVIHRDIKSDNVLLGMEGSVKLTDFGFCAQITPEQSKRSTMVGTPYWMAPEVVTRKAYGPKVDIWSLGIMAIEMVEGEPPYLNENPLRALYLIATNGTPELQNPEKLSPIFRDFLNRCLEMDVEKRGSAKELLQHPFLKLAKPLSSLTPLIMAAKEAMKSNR"}, "VRK2 (h) (human)": {"biological_target": "VRK2 (h) (human) (UniProt Q86Y07)", "sequence (Q86Y07 whole entry)": "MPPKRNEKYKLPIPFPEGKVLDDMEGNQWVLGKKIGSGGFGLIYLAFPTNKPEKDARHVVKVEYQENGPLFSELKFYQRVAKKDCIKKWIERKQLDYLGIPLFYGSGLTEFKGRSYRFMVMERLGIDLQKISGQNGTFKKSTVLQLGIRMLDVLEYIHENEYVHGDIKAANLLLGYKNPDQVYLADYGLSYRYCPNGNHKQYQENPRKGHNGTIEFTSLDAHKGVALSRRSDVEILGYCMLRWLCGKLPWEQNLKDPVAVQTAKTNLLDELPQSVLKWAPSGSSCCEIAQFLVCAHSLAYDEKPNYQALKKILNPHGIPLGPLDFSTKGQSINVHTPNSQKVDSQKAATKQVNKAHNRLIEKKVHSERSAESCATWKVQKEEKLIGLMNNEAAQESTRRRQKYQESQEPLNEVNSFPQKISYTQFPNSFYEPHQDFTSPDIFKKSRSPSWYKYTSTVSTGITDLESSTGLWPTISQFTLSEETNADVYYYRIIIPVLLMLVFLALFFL"}, "Aurora-B (h) (human)": {"biological_target": "Aurora-B (h) (human) (UniProt Q96GD4)", "sequence (Q96GD4 whole entry)": "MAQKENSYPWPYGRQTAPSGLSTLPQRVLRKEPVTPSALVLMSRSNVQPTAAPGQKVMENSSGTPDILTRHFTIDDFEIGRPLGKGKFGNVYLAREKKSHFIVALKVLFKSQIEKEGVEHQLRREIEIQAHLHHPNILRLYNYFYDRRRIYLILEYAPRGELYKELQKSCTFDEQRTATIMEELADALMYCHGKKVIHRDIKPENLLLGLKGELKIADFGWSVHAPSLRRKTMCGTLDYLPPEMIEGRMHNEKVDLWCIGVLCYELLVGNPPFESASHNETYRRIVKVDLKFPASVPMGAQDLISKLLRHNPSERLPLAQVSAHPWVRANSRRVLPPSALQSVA"}, "PKG1β (h) (human)": {"biological_target": "T4, PKG1β (h) (human) (UniProt Q13976)", "T4 sequence (looked up)": "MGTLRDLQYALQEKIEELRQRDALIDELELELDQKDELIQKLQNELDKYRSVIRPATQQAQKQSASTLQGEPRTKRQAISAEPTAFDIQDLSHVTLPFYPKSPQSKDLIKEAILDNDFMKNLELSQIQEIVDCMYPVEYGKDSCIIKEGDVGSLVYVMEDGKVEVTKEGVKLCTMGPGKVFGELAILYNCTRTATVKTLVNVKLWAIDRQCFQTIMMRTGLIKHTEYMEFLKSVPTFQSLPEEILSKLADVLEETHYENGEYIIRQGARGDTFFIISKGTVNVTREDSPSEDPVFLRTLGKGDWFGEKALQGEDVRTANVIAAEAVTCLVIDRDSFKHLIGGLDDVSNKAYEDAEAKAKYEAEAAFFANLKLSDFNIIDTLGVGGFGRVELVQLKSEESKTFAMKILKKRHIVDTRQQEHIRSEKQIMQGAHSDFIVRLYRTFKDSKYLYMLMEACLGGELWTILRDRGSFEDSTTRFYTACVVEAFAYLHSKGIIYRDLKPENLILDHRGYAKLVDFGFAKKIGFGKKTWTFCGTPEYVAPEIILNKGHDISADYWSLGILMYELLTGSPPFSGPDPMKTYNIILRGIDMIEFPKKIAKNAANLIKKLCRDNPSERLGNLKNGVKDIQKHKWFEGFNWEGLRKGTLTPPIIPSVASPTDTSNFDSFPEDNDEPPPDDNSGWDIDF"}, "cKit(V654A) (h) (human)": {"biological_target": "cKit(V654A) (h) (human) (UniProt P10721)", "sequence (P10721 544-976 V654A)": "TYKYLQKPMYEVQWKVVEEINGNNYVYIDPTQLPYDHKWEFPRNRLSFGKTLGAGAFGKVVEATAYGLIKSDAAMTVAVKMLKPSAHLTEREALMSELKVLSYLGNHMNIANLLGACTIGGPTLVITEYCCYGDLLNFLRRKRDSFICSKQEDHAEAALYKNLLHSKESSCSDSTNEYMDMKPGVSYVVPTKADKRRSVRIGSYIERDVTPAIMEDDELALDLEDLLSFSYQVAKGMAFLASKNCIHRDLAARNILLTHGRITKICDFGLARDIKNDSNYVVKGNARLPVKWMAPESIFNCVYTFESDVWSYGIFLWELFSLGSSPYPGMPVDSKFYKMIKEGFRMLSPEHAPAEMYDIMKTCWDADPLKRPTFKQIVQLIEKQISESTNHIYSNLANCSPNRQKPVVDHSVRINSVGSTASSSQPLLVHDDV"}, "LIMK1 (h) (human)": {"biological_target": "LIMK1 (h) (human) (UniProt P53667)"}, "GSK3α (h) (human)": {"biological_target": "GSK3α (h) (human) (UniProt P49840)"}, "CHK2(I157T) (h) (human)": {"biological_target": "CHK2(I157T) (h) (human) (UniProt O96017)", "sequence (O96017 5-543 I157T limits assumed)": "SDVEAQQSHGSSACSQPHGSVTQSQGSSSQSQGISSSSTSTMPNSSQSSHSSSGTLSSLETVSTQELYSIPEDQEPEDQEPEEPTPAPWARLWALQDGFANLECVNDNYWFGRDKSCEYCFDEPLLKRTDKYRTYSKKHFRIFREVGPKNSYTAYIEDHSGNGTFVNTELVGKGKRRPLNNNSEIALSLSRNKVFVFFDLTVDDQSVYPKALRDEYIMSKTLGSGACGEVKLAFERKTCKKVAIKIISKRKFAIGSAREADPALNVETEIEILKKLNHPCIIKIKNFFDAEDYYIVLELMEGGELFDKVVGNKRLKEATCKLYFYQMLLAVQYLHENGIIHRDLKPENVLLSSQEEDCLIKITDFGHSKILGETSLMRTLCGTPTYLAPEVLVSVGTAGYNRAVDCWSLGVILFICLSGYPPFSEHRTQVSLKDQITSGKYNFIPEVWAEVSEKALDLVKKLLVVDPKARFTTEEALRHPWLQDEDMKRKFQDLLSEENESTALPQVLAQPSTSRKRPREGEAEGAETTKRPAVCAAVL"}}, "data": [{"substance": "MMI-0300 (peptide)", "values": [{"measurement": "% activity at 100 µM", "setting": "PKG1α (h) (human)", "value": 64, "unit": "%"}, {"measurement": "% activity at 100 µM", "setting": "Tie2(Y897S) (h) (human)", "value": 83, "unit": "%"}, {"measurement": "% activity at 100 µM", "setting": "DDR2 (h) (human)", "value": 94, "unit": "%"}, {"measurement": "% activity at 100 µM", "setting": "Syk (h) (human)", "value": 24, "unit": "%"}, {"measurement": "% activity at 100 µM", "setting": "TAO1 (h) (human)", "value": 82, "unit": "%"}, {"measurement": "% activity at 100 µM", "setting": "PASK (h) (human)", "value": 29, "unit": "%"}, {"measurement": "% activity at 100 µM", "setting": "Ret (V804L) (h) (human)", "value": 79, "unit": "%"}, {"measurement": "% activity at 100 µM", "setting": "HIPK3 (h) (human)", "value": 93, "unit": "%"}, {"measurement": "% activity at 100 µM", "setting": "Met(Y1248C) (h) (human)", "value": 84, "unit": "%"}, {"measurement": "% activity at 100 µM", "setting": "Met(M1268T) (h) (human)", "value": 255, "unit": "%"}, {"measurement": "% activity at 100 µM", "setting": "PAK2 (h) (human)", "value": 65, "unit": "%"}, {"measurement": "% activity at 100 µM", "setting": "VRK2 (h) (human)", "value": 161, "unit": "%"}, {"measurement": "% activity at 100 µM", "setting": "Aurora-B (h) (human)", "value": 128, "unit": "%"}, {"measurement": "% activity at 100 µM", "setting": "PKG1β (h) (human)", "value": 50, "unit": "%"}, {"measurement": "% activity at 100 µM", "setting": "cKit(V654A) (h) (human)", "value": 134, "unit": "%"}, {"measurement": "% activity at 100 µM", "setting": "LIMK1 (h) (human)", "value": 88, "unit": "%"}, {"measurement": "% activity at 100 µM", "setting": "GSK3α (h) (human)", "value": 157, "unit": "%"}, {"measurement": "% activity at 100 µM", "setting": "CHK2(I157T) (h) (human)", "value": 43, "unit": "%"}]}]}
